Data on two substances can be found in article PMC5359885.

In experiment [1] the target is purified human spectrin (Sigma) (human) (UniProt P02549). The experiment in a line: ELISA; spectrin coated on the plate; serially diluted His-tagged protein in PBS, overnight at 4 °C; detected with anti-His tag antibody; Scatchard analysis.
Experiment [2] deals with F-actin (G-actin from Cytoskeleton polymerized to F-actin) (UniProt P68135). Briefly: co-sedimentation; Actin Binding Protein Spin-Down Assay kit; F-actin (7 μM) incubated with His-tagged protein (SURFIN4.2^WRD2-His 12.5 to 0.0 μM; His control 7.0 μM; Pf332^WRD 4.2 μM) at room temperature 30 min; 150,000×g 1.5 h at 24 °C; Western blot of supernatant and pellet, densitometry, one-site specific binding model.

The next experiment concerns the target Spectrin (Homo sapiens) (UniProt P02549). As to conditions: cited from earlier work.

Chain of UniProt P02549 (P02549 whole entry, chain 1 of 2): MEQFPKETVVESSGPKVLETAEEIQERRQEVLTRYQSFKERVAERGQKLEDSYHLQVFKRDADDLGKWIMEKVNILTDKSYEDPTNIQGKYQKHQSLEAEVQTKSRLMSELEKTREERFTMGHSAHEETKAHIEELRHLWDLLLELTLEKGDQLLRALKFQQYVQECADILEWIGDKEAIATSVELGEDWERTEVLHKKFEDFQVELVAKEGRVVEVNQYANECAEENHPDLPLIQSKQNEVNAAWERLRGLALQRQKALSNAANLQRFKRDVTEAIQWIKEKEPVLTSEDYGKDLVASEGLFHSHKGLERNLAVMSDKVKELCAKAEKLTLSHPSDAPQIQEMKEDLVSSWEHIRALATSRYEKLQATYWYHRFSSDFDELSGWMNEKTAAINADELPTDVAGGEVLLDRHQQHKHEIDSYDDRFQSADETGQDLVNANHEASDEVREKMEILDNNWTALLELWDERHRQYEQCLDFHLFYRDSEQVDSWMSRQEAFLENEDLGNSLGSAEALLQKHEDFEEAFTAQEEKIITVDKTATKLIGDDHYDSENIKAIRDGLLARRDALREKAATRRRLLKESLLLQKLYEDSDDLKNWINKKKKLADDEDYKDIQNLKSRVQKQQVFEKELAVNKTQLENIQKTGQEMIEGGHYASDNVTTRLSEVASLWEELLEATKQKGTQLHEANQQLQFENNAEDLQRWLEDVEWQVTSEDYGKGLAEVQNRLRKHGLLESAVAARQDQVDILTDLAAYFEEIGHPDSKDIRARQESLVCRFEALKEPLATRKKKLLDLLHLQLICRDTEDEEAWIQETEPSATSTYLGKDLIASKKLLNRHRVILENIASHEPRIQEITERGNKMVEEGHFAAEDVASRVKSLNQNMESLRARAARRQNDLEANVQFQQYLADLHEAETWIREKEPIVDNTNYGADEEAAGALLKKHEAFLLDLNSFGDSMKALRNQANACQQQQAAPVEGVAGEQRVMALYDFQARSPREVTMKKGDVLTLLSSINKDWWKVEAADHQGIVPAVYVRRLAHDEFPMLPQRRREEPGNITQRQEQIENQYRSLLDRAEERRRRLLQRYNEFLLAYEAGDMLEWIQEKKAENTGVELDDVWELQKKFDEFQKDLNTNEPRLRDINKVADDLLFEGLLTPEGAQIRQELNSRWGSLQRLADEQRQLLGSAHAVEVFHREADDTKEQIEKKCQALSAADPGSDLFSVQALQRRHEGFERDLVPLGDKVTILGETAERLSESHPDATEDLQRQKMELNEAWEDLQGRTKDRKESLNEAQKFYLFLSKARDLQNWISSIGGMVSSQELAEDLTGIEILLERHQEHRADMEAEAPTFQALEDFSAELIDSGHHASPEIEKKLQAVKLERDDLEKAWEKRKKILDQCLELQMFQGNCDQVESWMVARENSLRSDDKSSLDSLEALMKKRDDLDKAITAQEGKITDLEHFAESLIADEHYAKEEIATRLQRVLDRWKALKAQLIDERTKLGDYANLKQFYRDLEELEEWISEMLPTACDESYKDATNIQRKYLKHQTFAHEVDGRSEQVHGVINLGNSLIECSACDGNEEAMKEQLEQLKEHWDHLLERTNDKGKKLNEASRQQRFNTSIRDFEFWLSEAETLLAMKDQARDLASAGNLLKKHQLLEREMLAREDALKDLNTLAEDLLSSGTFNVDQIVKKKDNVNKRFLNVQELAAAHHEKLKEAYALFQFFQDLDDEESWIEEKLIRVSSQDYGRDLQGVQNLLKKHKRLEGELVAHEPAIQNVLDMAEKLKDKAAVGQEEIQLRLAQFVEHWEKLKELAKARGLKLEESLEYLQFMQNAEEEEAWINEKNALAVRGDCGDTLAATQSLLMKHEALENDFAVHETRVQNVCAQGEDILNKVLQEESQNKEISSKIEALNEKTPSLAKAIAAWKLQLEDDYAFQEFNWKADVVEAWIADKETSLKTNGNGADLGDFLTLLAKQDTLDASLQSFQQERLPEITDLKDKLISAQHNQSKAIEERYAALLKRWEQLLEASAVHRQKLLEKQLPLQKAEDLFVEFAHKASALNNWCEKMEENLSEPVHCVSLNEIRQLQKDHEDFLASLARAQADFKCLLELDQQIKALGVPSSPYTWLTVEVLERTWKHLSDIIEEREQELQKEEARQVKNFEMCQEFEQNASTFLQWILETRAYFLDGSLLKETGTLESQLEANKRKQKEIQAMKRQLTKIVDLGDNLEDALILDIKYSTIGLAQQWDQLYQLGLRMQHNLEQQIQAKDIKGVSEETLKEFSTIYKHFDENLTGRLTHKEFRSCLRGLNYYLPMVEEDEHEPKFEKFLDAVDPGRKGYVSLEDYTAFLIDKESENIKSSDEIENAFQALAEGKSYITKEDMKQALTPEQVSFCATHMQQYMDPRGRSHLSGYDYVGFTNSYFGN
Chain of UniProt P02549 (P11277 2-2137, chain 2 of 2, further chain): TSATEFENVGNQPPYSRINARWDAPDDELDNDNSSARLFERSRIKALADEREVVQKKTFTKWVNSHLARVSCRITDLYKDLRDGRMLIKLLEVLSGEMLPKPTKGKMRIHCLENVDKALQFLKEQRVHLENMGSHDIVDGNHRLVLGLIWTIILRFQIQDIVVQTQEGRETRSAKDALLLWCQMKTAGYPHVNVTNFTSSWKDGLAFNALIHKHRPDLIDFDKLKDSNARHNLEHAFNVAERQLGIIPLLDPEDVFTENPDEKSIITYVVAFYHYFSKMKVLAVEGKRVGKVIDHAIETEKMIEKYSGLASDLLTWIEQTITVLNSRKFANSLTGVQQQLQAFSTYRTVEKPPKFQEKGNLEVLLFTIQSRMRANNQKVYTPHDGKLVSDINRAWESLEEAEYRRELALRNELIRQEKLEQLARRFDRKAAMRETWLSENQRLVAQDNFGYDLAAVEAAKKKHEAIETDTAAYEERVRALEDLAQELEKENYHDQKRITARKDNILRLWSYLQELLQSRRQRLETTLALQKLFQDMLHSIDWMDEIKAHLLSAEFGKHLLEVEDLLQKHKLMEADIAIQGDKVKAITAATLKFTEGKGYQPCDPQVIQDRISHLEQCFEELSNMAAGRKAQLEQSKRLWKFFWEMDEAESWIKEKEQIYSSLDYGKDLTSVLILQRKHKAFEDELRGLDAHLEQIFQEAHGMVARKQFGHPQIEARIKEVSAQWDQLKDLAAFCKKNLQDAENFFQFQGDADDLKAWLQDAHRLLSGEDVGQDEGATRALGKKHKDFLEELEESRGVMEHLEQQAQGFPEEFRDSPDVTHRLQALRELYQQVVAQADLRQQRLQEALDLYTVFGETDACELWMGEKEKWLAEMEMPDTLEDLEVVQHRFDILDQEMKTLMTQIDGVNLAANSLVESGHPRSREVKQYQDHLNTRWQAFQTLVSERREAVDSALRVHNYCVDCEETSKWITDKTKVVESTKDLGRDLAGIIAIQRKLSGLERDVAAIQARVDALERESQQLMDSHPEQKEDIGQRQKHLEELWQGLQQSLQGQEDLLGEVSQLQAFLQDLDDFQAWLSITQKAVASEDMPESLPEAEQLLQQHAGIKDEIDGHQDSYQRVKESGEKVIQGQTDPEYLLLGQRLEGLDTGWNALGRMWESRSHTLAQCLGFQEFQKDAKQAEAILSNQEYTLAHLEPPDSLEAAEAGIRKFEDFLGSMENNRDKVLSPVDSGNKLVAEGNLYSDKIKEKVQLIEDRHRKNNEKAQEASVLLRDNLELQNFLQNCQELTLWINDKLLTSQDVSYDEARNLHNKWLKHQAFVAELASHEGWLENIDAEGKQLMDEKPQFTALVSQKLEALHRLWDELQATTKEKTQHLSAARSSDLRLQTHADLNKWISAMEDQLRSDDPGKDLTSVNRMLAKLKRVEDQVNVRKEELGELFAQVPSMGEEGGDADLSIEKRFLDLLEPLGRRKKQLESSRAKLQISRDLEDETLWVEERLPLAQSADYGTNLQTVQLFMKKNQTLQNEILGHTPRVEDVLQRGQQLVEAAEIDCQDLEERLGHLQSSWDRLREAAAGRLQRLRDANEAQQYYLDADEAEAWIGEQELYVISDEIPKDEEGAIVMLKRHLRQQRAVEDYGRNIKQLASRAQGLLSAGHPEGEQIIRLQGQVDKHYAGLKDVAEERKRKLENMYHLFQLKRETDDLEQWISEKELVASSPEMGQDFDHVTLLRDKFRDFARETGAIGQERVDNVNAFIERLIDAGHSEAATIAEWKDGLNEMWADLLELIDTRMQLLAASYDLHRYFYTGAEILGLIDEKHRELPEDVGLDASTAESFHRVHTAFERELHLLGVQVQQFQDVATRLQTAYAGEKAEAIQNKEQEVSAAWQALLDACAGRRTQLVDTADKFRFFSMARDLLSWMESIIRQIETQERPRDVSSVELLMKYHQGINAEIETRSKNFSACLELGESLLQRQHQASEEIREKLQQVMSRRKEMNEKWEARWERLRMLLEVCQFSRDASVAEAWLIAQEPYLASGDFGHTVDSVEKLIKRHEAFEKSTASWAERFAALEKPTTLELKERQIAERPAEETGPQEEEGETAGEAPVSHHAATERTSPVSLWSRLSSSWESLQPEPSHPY

As for “His-tagged recombinant SURFIN4.2 WRD2 (second tryptophan-rich domain of SURFIN4.2, amino acids 1349-1567), expressed in E. coli (domain or fragment)”, the Kd in experiment [1] came out at 510 nM; in experiment [2] it was 5160 nM.

As for RESA (from UniProt P13830), the Kd with Spectrin (Homo sapiens) is 880 nM.

The Kd is a measure of binding affinity in units of concentration.
